Earlier results in PMC9256694.

Target: IL-2 receptor beta/gamma common chain (Homo sapiens) (UniProt P14784)
Sequence of UniProt P14784 (P14784 27-240, chain 1 of 2): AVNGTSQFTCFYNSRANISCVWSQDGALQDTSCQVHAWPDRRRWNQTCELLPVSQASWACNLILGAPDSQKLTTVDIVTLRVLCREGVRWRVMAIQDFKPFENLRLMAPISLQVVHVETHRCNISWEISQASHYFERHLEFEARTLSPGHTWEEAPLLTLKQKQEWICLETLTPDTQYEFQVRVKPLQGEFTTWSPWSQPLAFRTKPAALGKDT
Sequence of UniProt P14784 (P31785 23-262, chain 2 of 2, further chain): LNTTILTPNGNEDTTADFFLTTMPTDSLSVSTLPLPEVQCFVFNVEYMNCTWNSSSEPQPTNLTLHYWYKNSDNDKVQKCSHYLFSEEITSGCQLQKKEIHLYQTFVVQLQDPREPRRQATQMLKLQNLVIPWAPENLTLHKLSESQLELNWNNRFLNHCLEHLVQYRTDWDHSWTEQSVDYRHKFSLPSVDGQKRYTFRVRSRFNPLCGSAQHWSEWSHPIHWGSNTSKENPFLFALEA

Sequence of IL-2 (P60568 21-153): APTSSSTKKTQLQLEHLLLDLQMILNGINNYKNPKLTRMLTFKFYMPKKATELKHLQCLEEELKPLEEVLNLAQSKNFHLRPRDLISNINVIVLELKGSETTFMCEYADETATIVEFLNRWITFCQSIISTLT

In the case of IL-2 (from UniProt P60568), the Kd is listed as 1 nM.
